The values that follow come from publication PMC12109978.

In assay [1] the target is human tropomodulin 1 (Tmod1) (human) (UniProt P28289). Briefly: SEC; Superose 6 Increase 10/300 GL, 50 mM HEPES-Na pH 7.3, 150 mM NaCl, 1 mM DTT, 0.5 mL/min, 280 nm; 30 µM Tpm and Tmod1, or 26 µM Tpm and 13 µM Tmod4; single proteins and mixtures. (In general: SEC sorts molecules by how far they enter the pores of the column.)
For assay [2], the target named is human tropomodulin 4 (Tmod4) (human) (UniProt Q9NZQ9). Description: pull-down; His-tagged Tmod4 (6 µM) incubated 20 min with 3 to 24 µM Tpm in 30 mM HEPES-Na, 200 mM NaCl, pH 7.3, then captured on IMAC Ni-charged resin, eluted with 500 mM imidazole; SDS-PAGE, densitometry.
Sequence of UniProt Q9NZQ9 (Q9NZQ9 whole entry): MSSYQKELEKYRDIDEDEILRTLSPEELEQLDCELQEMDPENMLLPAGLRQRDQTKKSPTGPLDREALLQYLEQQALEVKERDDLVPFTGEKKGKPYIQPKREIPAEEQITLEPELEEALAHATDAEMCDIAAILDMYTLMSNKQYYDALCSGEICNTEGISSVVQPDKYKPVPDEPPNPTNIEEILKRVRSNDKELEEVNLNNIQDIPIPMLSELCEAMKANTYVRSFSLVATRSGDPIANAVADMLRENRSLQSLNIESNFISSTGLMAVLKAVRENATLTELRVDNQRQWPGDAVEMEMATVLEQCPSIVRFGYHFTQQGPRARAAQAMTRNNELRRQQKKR
For assay [3], the target named is human tropomyosin Tpm1.1 with Ala-Ser N-terminal extension (human).

“human tropomyosin Tpm1.1 with Ala-Ser N-terminal extension (natural protein)”: the stoichiometry N (Tpm1.1 per Tmod1) in assay [1] is 2. The Tpm/Tmod ratio at which saturation is reached (Tpm/Tmod ratio) in assay [2] is 3.
“human tropomyosin Tpm1.2 with Ala-Ser N-terminal extension (natural protein)”: the Tpm/Tmod ratio at which saturation is reached (Tpm/Tmod ratio) in assay [2] was 2.5.

B1: human tropomodulin 1 (Tmod1) (natural protein)
chain: MSYRRELEKYRDLDEDEILGALTEEELRTLENELDELDPDNALLPAGLRQKDQTTKAPTGPFKREELLDHLEKQAKEFKDREDLVPYTGEKRGKVWVPKQKPLDPVLESVTLEPELEEALANASDAELCDIAAILGMHTLMSNQQYYQALSSSSIMNKEGLNSVIKPTQYKPVPDEEPNSTDVEETLERIKNNDPKLEEVNLNNIRNIPIPTLKAYAEALKENSYVKKFSIVGTRSNDPVAYALAEMLKENKVLKTLNVESNFISGAGILRLVEALPYNTSLVEMKIDNQSQPLGNKVEMEIVSMLEKNATLLKFGYHFTQQGPRLRASNAMMNNNDLVRKRRLADLTGPIIPKCRSGV
In assay [3], B1 came in with a decrease of the sliding velocity of thin filaments containing Tpm1.1 over sheep ventricular myosin at pCa 5.2 by 500 nM Tmod1 of 30%.
